According to patent US20250283030A1, “Biosynthesis of Phenylpropanoid Compounds” (BGENE GENETICS, priority 2021, published 2025):
Entries after “also recorded” stand apart in the source; their conditions may differ.

B1: P160L: Pseudomonas putida AroF-I DAHP synthase with P160L mutation, SEQ ID NO:2 (protein, listed as Pseudomonas putida)
chain: LAAGTRDLTSNTMADLPIDDLNVASNETLITPDQLKKEIPLSAKALQTVTAGREVVRNILDGKDHRLFVVVGPCSIHDIKAAHEYAERLKVLAEEVSDTLYLVMRVYFEKPRTTVGWKGLINDPYLDDSFKIQDGLHIGRKLLLDLAEMGLPTATEALDLISPQYLQDLISWSAIGARTTESQTHREMASGLSSAVGFKNGTDGGLTVAINALQSVSKPHRFLGINQEGGVSIVTTKGNPYGHVVLRGGNGKPNYDSVSVALCEQDLAKAKIKANIMVDCSHANSNKDPALQPLVMENVANQILEGNQSIIGLMVESHLNWGCQSIPKNLDDLQYGVSITDACIDWSATEKTLRSMHAKLKDVLPQRKRG
B2: P160L/Q164A: Pseudomonas putida AroF-I DAHP synthase with P160L/Q164A double mutation, SEQ ID NO:3 (protein, listed as Pseudomonas putida)
chain: LAAGTRDLTSNTMADLPIDDLNVASNETLITPDQLKKEIPLSAKALQTVTAGREVVRNILDGKDHRLFVVVGPCSIHDIKAAHEYAERLKVLAEEVSDTLYLVMRVYFEKPRTTVGWKGLINDPYLDDSFKIQDGLHIGRKLLLDLAEMGLPTATEALDLISPAYLQDLISWSAIGARTTESQTHREMASGLSSAVGFKNGTDGGLTVAINALQSVSKPHRFLGINQEGGVSIVTTKGNPYGHVVLRGGNGKPNYDSVSVALCEQDLAKAKIKANIMVDCSHANSNKDPALQPLVMENVANQILEGNQSIIGLMVESHLNWGCQSIPKNLDDLQYGVSITDACIDWSATEKTLRSMHAKLKDVLPQRKRGLAAGTRDLTSNTMADLPIDDLNVASNETLITPDQLKKEIPLSAKALQTVTAGREVVRNILDGKDHRLFVVVGPCSIHDIKAAHEYAERLKVLAEEVSDTLYLVMRVYFEKPRTTVGWKGLINDPYLDDSFKIQDGLHIGRKLLLDLAEMGLPTATEALDLISPAYLQDLISWSAIGARTTESQTHREMASGLSSAVGFKNGTDGGLTVAINALQSVSKPHRFLGINQEGGVSIVTTKGNPYGHVVLRGGNGKPNYDSVSVALCEQDLAKAKIKANIMVDCSHANSNKDPALQPLVMENVANQILEGNQSIIGLMVESHLNWGCQSIPKNLDDLQYGVSITDACIDWSATEKTLRSMHAKLKDVLPQRKRG
B3: P160L/G191K: Pseudomonas putida AroF-I DAHP synthase with P160L/G191K double mutation (protein)
chain: LAAGTRDLTSNTMADLPIDDLNVASNETLITPDQLKKEIPLSAKALQTVTAGREVVRNILDGKDHRLFVVVGPCSIHDIKAAHEYAERLKVLAEEVSDTLYLVMRVYFEKPRTTVGWKGLINDPYLDDSFKIQDGLHIGRKLLLDLAEMGLPTATEALDLISPQYLQDLISWSAIGARTTESQTHREMASKLSSAVGFKNGTDGGLTVAINALQSVSKPHRFLGINQEGGVSIVTTKGNPYGHVVLRGGNGKPNYDSVSVALCEQDLAKAKIKANIMVDCSHANSNKDPALQPLVMENVANQILEGNQSIIGLMVESHLNWGCQSIPKNLDDLQYGVSITDACIDWSATEKTLRSMHAKLKDVLPQRKRG
B4: P160L/S193A: Pseudomonas putida AroF-I DAHP synthase with P160L/S193A double mutation, SEQ ID NO:4 (protein, listed as Pseudomonas putida)
chain: LAAGTRDLTSNTMADLPIDDLNVASNETLITPDQLKKEIPLSAKALQTVTAGREVVRNILDGKDHRLFVVVGPCSIHDIKAAHEYAERLKVLAEEVSDTLYLVMRVYFEKPRTTVGWKGLINDPYLDDSFKIQDGLHIGRKLLLDLAEMGLPTATEALDLISPQYLQDLISWSAIGARTTESQTHREMASGLASAVGFKNGTDGGLTVAINALQSVSKPHRFLGINQEGGVSIVTTKGNPYGHVVLRGGNGKPNYDSVSVALCEQDLAKAKIKANIMVDCSHANSNKDPALQPLVMENVANQILEGNQSIIGLMVESHLNWGCQSIPKNLDDLQYGVSITDACIDWSATEKTLRSMHAKLKDVLPQRKRG

Columns and labels:
[1] = system: wild-type Pseudomonas putida AroF-I enzyme; assay: Enzymatic activity assay (PEP consumption by HPLC), inhibition by tyrosine; type: biochemical; conditions: 1 mM tyrosine, 300 μM PEP, 300 μM E4P, 60 minutes at 30° C., FIG. 1
Procedure: The activity of the enzymes is measured by monitoring the disappearance of the substrate using HPLC (High Pressure Liquid Chromatography) detection. The reaction is performed in a final volume of 200 μl with 40 mM of phosphate buffer, pH 7, 300 μM of phospho(enol)pyruvate (PEP), 20 μg of purified enzyme, 1 mM of tyrosine (or another aromatic amino acid) or 3 μM of HCl, the volume being completed with ultrapure water. After pre-incubation for 2 minutes at 30° C., the reaction is initiated by adding 300 μM of erythrose-4-phosphate […]) and the reaction mixture is incubated for 60 minutes at 30° C. Finally, the mixture is heated for 5 minutes at 80° C. in order to stop the reaction and precipitate the proteins. The enzymatic activity assays are firstly centrifuged for 10 minutes at 15 000×g in order to precipitate the proteins. The supernatant obtained is filtered over a 0.22 μm membrane before HPLC analysis. The method used is described below: • System: Agilent 1100 (Agilent) • Column: Luna OMEGA polar C18 (Phenomenex) • Mobile phase: 1 mM phosphoric acid • Flow rate: 0.3 ml/min • UV detection: 220 nm • Injection: 5 μl • Duration of analysis: 15 minutes In order to quantify the amount of PEP present in the samples, a series of standards is analyzed, with PEP concentrations from 0.1 mM to 1 mM.

AroF-I enzyme = assay: Enzymatic activity assay (PEP consumption by HPLC) of AroF-I mutants with or without tyrosine; type: biochemical, Pseudomonas putida; conditions: for resistance of the enzyme to inhibition by tyrosine: 1 mM tyrosine, PEP consumed compared to AroF-I WT, FIG. 2-4; for enzymatic activity (PEP consumed): in the presence or absence of tyrosine, FIG. 3
Procedure: In order to express and purify the AroF-I enzyme and the mutants derived therefrom, the corresponding genes are cloned in a pET28_b(+) plasmid with a His tag grafted to the N-terminal part of the protein (upstream of the gene's ATG).
The activity of the enzymes is measured by monitoring the disappearance of the substrate using HPLC (High Pressure Liquid Chromatography) detection.
The reaction is performed in a final volume of 200 μl with 40 mM of phosphate buffer, pH 7, 300 μM of phospho(enol)pyruvate (PEP), 20 μg of purified enzyme, 1 mM of tyrosine (or another aromatic amino acid) or 3 μM of HCl, the volume being completed with ultrapure water.
After pre-incubation for 2 minutes at 30° C., the reaction is initiated by adding 300 μM of erythrose-4-phosphate (E4P) and the reaction mixture is incubated for 60 minutes at 30° C.
Finally, the mixture is heated for 5 minutes at 80° C. in order to stop the reaction and precipitate the proteins.
The enzymatic activity assays are firstly centrifuged for 10 minutes at 15 000×g in order to precipitate the proteins. The supernatant obtained is filtered over a 0.22 μm membrane before HPLC analysis.
The method used is described below: • System: Agilent 1100 (Agilent) • Column: Luna OMEGA polar C18 (Phenomenex) • Mobile phase: 1 mM phosphoric acid • Flow rate: 0.3 ml/min • UV detection: 220 nm • Injection: 5 μl • Duration of analysis: 15 minutes
In order to quantify the amount of PEP present in the samples, a series of standards is analyzed, with PEP concentrations from 0.1 mM to 1 mM.

Row | Molecule | activity of the wild-type AroF-I enzyme in the presence of tyrosine [1] | resistance of the enzyme to inhibition by tyrosine (AroF-I enzyme) | enzymatic activity (PEP consumed) (AroF-I enzyme)
1 | N[C@@H](Cc1ccc(O)cc1)C(=O)O [tyrosine] | inhibited |  | 
2 | B1 |  | partially resistant | 
3 | B2 |  | slightly improved | 
4 | B3 |  |  | no longer has any activity
5 | B4 |  | virtually completely resistant; also recorded: synergistic effect | restored virtually all the enzymatic activity
